# In paper doi:10.1101/2022.07.28.501822:
# B1: FAM-GreenB1 (ssDNA)
# DNA: ATCCAGAGTGACGCAGCATGGGGGTAGTGGTGGTTAGGAGTGGAGGCGAGGAGAGCGGTGGACACGGTGGCTTAGT
# Target: integrin beta1 (SinoBiological 10587-H08H1) (UniProt P05556 21-728)
# Test: fluorescence polarization
# integrin beta1 (SinoBiological 10587-H08H1), sequence (P05556 21-728): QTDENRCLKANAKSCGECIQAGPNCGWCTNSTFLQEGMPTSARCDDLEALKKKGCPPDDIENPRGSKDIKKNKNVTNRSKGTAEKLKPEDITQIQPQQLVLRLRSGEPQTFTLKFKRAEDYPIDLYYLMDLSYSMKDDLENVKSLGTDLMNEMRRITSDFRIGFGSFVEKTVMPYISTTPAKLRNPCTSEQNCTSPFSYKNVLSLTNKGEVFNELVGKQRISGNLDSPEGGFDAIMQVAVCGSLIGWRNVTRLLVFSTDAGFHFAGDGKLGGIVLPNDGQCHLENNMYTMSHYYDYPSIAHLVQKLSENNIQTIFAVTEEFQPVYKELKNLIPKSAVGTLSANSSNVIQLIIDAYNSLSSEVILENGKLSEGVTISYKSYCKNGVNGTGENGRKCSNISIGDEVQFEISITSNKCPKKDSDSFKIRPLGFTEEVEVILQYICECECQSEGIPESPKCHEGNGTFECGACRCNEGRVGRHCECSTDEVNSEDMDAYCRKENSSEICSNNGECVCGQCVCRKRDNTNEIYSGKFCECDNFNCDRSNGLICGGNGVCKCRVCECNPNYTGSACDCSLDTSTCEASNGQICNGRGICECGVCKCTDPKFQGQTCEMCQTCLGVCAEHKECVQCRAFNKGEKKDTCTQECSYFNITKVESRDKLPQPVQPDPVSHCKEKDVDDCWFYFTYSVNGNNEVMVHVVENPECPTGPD
binder,measurement,value
B1,Kd,7 nM
